Reference: patent US20230220589A1
Residue numbers refer to the chain shown, from its start.

What was measured:
[1] = target: M44-modified D NTAA target peptides; assay: encoding assay; P2 S;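 also: fraction of recording tags encoded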
[2] = target: M44-modified E NTAA target peptides; assay: encoding assay; P2 S;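 also: fraction of recording tags encoded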
[3] = target: M44-modified N NTAA target peptides; assay: encoding assay; P2 S
[4] = target: M44-modified S NTAA target peptides; assay: encoding assay; P2 S
[5] = target: M44-modified W NTAA target peptides; assay: encoding assay; P2 S;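 also: fraction of recording tags encoded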
[6] = target: M44-modified G NTAA target peptides (M44-G-P2-peptide); assay: encoding assay; P2 N;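 also: fraction of recording tags encoded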
[7] = target: M44-modified T NTAA target peptides; assay: encoding assay; P2 N;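 also: fraction of recording tags encoded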
[8] = target: M44-modified E NTAA target peptides; assay: encoding assay; P2 V;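 also: fraction of recording tags encoded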
[9] = target: M44-modified G NTAA target peptides (M44-G-P2-peptide); assay: encoding assay; P2 V;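 also: fraction of recording tags encoded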
[10] = target: M44-modified G NTAA target peptides (M44-G-P2-peptide); assay: encoding assay; P2 G;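 also: fraction of recording tags encoded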
[11] = target: M44-modified V NTAA target peptides; assay: encoding assay; P2 V;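 also: fraction of recording tags encoded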
[12] = target: M44-modified A NTAA target peptides (M44-A-P2-peptide); assay: Gini coefficient of P2 tolerance from multiplex encoding heatmap
[13] = target: M44-modified A NTAA target peptides (M44-A-P2-peptide); assay: Gini coefficient of P1 selectivity from multiplex encoding heatmap
[14] = target: M17-modified A NTAA target peptides; assay: encoding assay; P2 S;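 also: fraction of recording tags encoded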
[15] = target: M17-modified D NTAA target peptides; assay: encoding assay; P2 S;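 also: fraction of recording tags encoded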
[16] = target: M17-modified E NTAA target peptides; assay: encoding assay; P2 S;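 also: fraction of recording tags encoded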
[17] = target: M17-modified F NTAA target peptides; assay: encoding assay; P2 S;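 also: fraction of recording tags encoded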
[18] = target: M17-modified G NTAA target peptides; assay: encoding assay; P2 S;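 also: fraction of recording tags encoded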
[19] = target: M17-modified H NTAA target peptides; assay: encoding assay; P2 S;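 also: fraction of recording tags encoded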
[20] = target: M17-modified I NTAA target peptides; assay: encoding assay; P2 S;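 also: fraction of recording tags encoded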
[21] = target: M17-modified L NTAA target peptides; assay: encoding assay; P2 S;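 also: fraction of recording tags encoded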
[22] = target: M17-modified M NTAA target peptides; assay: encoding assay; P2 S;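 also: fraction of recording tags encoded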
[23] = target: M17-modified N NTAA target peptides; assay: encoding assay; P2 S;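 also: fraction of recording tags encoded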
[24] = target: M17-modified P NTAA target peptides; assay: encoding assay; P2 S;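 also: fraction of recording tags encoded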
[25] = target: M17-modified Q NTAA target peptides; assay: encoding assay; P2 S;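 also: fraction of recording tags encoded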
[26] = target: M17-modified S NTAA target peptides; assay: encoding assay; P2 S;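 also: fraction of recording tags encoded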
[27] = target: M17-modified T NTAA target peptides; assay: encoding assay; P2 S;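 also: fraction of recording tags encoded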
[28] = target: M17-modified V NTAA target peptides; assay: encoding assay; P2 S;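 also: fraction of recording tags encoded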
[29] = target: M17-modified Y NTAA target peptides (M17-Y-P2-peptide); assay: encoding assay; P2 S;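 also: fraction of recording tags encoded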
[30] = target: M17-modified D NTAA target peptides; assay: encoding assay; P2 N;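 also: fraction of recording tags encoded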
[31] = target: M17-modified F NTAA target peptides; assay: encoding assay; P2 N;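 also: fraction of recording tags encoded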
[32] = target: M17-modified H NTAA target peptides; assay: encoding assay; P2 N;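 also: fraction of recording tags encoded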
[33] = target: M17-modified I NTAA target peptides; assay: encoding assay; P2 N;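 also: fraction of recording tags encoded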
[34] = target: M17-modified M NTAA target peptides; assay: encoding assay; P2 N;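 also: fraction of recording tags encoded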
[35] = target: M17-modified P NTAA target peptides; assay: encoding assay; P2 N;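 also: fraction of recording tags encoded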
[36] = target: M17-modified S NTAA target peptides; assay: encoding assay; P2 N;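 also: fraction of recording tags encoded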
[37] = target: M17-modified A NTAA target peptides; assay: encoding assay; P2 V;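 also: fraction of recording tags encoded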
[38] = target: M17-modified D NTAA target peptides; assay: encoding assay; P2 V;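 also: fraction of recording tags encoded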
[39] = target: M17-modified E NTAA target peptides; assay: encoding assay; P2 V;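 also: fraction of recording tags encoded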
[40] = target: M17-modified F NTAA target peptides; assay: encoding assay; P2 V;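 also: fraction of recording tags encoded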
[41] = target: M17-modified G NTAA target peptides; assay: encoding assay; P2 V;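 also: fraction of recording tags encoded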
[42] = target: M17-modified H NTAA target peptides; assay: encoding assay; P2 V;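 also: fraction of recording tags encoded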
[43] = target: M17-modified I NTAA target peptides; assay: encoding assay; P2 V;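 also: fraction of recording tags encoded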
[44] = target: M17-modified L NTAA target peptides; assay: encoding assay; P2 V;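 also: fraction of recording tags encoded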
[45] = target: M17-modified M NTAA target peptides; assay: encoding assay; P2 V;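 also: fraction of recording tags encoded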
[46] = target: M17-modified N NTAA target peptides; assay: encoding assay; P2 V;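 also: fraction of recording tags encoded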
[47] = target: M17-modified P NTAA target peptides; assay: encoding assay; P2 V;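 also: fraction of recording tags encoded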
[48] = target: M17-modified Q NTAA target peptides; assay: encoding assay; P2 V;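 also: fraction of recording tags encoded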
[49] = target: M17-modified S NTAA target peptides; assay: encoding assay; P2 V;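 also: fraction of recording tags encoded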
[50] = target: M17-modified T NTAA target peptides; assay: encoding assay; P2 V;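 also: fraction of recording tags encoded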
[51] = target: M17-modified V NTAA target peptides; assay: encoding assay; P2 V;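 also: fraction of recording tags encoded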
[52] = target: M17-modified W NTAA target peptides; assay: encoding assay; P2 V;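 also: fraction of recording tags encoded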
[53] = target: M17-modified Y NTAA target peptides (M17-Y-P2-peptide); assay: encoding assay; P2 V;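 also: fraction of recording tags encoded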
[54] = target: M17-modified W NTAA target peptides; assay: encoding assay; P2 G;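 also: fraction of recording tags encoded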

B1: engineered M44-L binder (SEQ ID NO: 31) (designed binder, not shown: small tags and cut ends; large carriers)
chain: QDSTQNLIPAPPLISVPLQPGFWTERFQGRWFLVGFAGNAVQKERQSRLTMQSLILELQEDNSYNITAINVRGQGCRYIISTLVPSSRPGQFTLGNIHSYPQIQSLDVQVADTDYDQFAMVFLQGTSENKQYFEVALAGRTKGLSDELKERFVSFAKSLGLKDNNIVFSVPTDQCIDN
Question: How did the encoding yield [1] turn out when B1 was run?
Answer: 0.02

Question: And the encoding yield [2]?
Answer: 0.01

Question: And the encoding yield [3]?
Answer: 0.01

Question: And the encoding yield [4]?
Answer: 0.01

Question: And the encoding yield [5]?
Answer: 0.01

Question: What about the encoding yield [6] of the same binder?
Answer: 0.02

Question: And the encoding yield [7]?
Answer: 0.01

Question: What about the encoding yield [8] of the same binder?
Answer: 0.01

Question: And the encoding yield [9]?
Answer: 0.01

B2: engineered M44-A binder (SEQ ID NO: 42) (designed binder, not shown: small tags and cut ends; large carriers)
chain: QVSVQPNFQQDKFLGRWFVAGLASNSSWDREKVAALSGAKMVVAPATDGGLNVTRTMLRKNQCETYTGLLQPAGSLGSYSWRSPHPGSTGSESVVETDYDQYALVYGQGSKGPGEDLRAAALWSRTQTPRAELKEKFTAFSKAQGFTEDTIVFLPQTDKCMTEQ
Question: With B2 as the binder, how does the encoding yield [1] read?
Answer: 0.02

Question: And the encoding yield [2]?
Answer: 0.01

Question: And the encoding yield [3]?
Answer: 0.01

Question: What about the encoding yield [4] of the same binder?
Answer: 0.01

Question: What about the encoding yield [5] of the same binder?
Answer: 0.01

Question: And the encoding yield [10]?
Answer: 0.01

Question: What about the encoding yield [6] of the same binder?
Answer: 0.03

Question: And the encoding yield [7]?
Answer: 0.02

Question: What about the encoding yield [8] of the same binder?
Answer: 0.03

Question: And the encoding yield [9]?
Answer: 0.01

Question: What about the encoding yield [11] of the same binder?
Answer: 0.01

Question: And the P2 score [12]?
Answer: 0.376

Question: What about the P1 score [13] of the same binder?
Answer: 0.31

B3: engineered M44-L binder (SEQ ID NO: 21) (designed binder, not shown: small tags and cut ends; large carriers)
chain: QVSVQPNFQQDKFLGRWFYAGHASNSSWYREKVAALSMAKLVVAPATDGGLNATETFLRKNQCETITSLLQPAGSLGSYSSRSPHGGSTWSTSVVETDYDQYALLYLQGSKGPGEDFRGAILASRTQTPRAELKEKFTAFSKAQGFTEDTIVFLPQTDKCMTEQ
Question: For B3, which encoding yield [11] is on record?
Answer: 0.01

B4: engineered M17-Y binder (SEQ ID NO: 61) (designed binder, not shown: small tags and cut ends; large carriers)
chain: TVPDRSEIAGKWYVVALASNTEFYLREKDWVKSAMARISFLGEDELKVSSAVPSPNGCYKVERTWKKTSDDGEVYNSRAAKLKVEVLDTDYKSYAVIYATRVKDGRTDHQMILYSRSPEVSPAATAIFRKLAGERNYTDEMVAMLPRQEECTVDEV
Question: For B4, which encoding yield [14] is on record?
Answer: 0.02

Question: What about the encoding yield [15] of the same binder?
Answer: 0.01

Question: What about the encoding yield [16] of the same binder?
Answer: 0.01

Question: And the encoding yield [17]?
Answer: 0.04

Question: What about the encoding yield [18] of the same binder?
Answer: 0.03

Question: What about the encoding yield [19] of the same binder?
Answer: 0.02

Question: What about the encoding yield [20] of the same binder?
Answer: 0.03

Question: And the encoding yield [21]?
Answer: 0.02

Question: What about the encoding yield [22] of the same binder?
Answer: 0.04

Question: And the encoding yield [23]?
Answer: 0.02

Question: What about the encoding yield [24] of the same binder?
Answer: 0.01

Question: And the encoding yield [25]?
Answer: 0.01

Question: What about the encoding yield [26] of the same binder?
Answer: 0.01

Question: And the encoding yield [27]?
Answer: 0.02

Question: What about the encoding yield [28] of the same binder?
Answer: 0.02

Question: What about the encoding yield [29] of the same binder?
Answer: 0.1

Question: What about the encoding yield [30] of the same binder?
Answer: 0.02

Question: And the encoding yield [31]?
Answer: 0.02

Question: And the encoding yield [32]?
Answer: 0.03

Question: And the encoding yield [33]?
Answer: 0.02

Question: And the encoding yield [34]?
Answer: 0.01

Question: And the encoding yield [35]?
Answer: 0.01

Question: What about the encoding yield [36] of the same binder?
Answer: 0.02

Question: And the encoding yield [37]?
Answer: 0.02

Question: What about the encoding yield [38] of the same binder?
Answer: 0.03

Question: What about the encoding yield [39] of the same binder?
Answer: 0.01

Question: And the encoding yield [40]?
Answer: 0.13

Question: And the encoding yield [41]?
Answer: 0.01

Question: What about the encoding yield [42] of the same binder?
Answer: 0.04

Question: What about the encoding yield [43] of the same binder?
Answer: 0.05

Question: And the encoding yield [44]?
Answer: 0.02

Question: And the encoding yield [45]?
Answer: 0.02

Question: And the encoding yield [46]?
Answer: 0.02

Question: And the encoding yield [47]?
Answer: 0.02

Question: And the encoding yield [48]?
Answer: 0.02

Question: And the encoding yield [49]?
Answer: 0.02

Question: And the encoding yield [50]?
Answer: 0.03

Question: What about the encoding yield [51] of the same binder?
Answer: 0.01

Question: What about the encoding yield [52] of the same binder?
Answer: 0.04

Question: What about the encoding yield [53] of the same binder?
Answer: 0.22

B5: upgraded binder after additional maturation round (SEQ ID NO: 62) (designed binder, not shown: small tags and cut ends; large carriers)
chain: B4 chain with E27G, W30R, A36V, L41Q, G105R, E119D
Question: For B5, which encoding yield [14] is on record?
Answer: 0.02

Question: And the encoding yield [15]?
Answer: 0.02

Question: What about the encoding yield [16] of the same binder?
Answer: 0.01

Question: What about the encoding yield [17] of the same binder?
Answer: 0.07

Question: What about the encoding yield [18] of the same binder?
Answer: 0.04

Question: What about the encoding yield [19] of the same binder?
Answer: 0.03

Question: And the encoding yield [20]?
Answer: 0.05

Question: What about the encoding yield [21] of the same binder?
Answer: 0.04

Question: What about the encoding yield [22] of the same binder?
Answer: 0.04

Question: What about the encoding yield [23] of the same binder?
Answer: 0.02

Question: What about the encoding yield [24] of the same binder?
Answer: 0.02

Question: What about the encoding yield [25] of the same binder?
Answer: 0.02

Question: What about the encoding yield [26] of the same binder?
Answer: 0.01

Question: And the encoding yield [27]?
Answer: 0.04

Question: What about the encoding yield [28] of the same binder?
Answer: 0.03

Question: And the encoding yield [29]?
Answer: 0.22

Question: What about the encoding yield [54] of the same binder?
Answer: 0.04

Question: What about the encoding yield [30] of the same binder?
Answer: 0.02

Question: What about the encoding yield [31] of the same binder?
Answer: 0.01

Question: What about the encoding yield [32] of the same binder?
Answer: 0.03

Question: What about the encoding yield [33] of the same binder?
Answer: 0.03

Question: What about the encoding yield [34] of the same binder?
Answer: 0.02

Question: What about the encoding yield [35] of the same binder?
Answer: 0.02

Question: What about the encoding yield [36] of the same binder?
Answer: 0.02

Question: What about the encoding yield [37] of the same binder?
Answer: 0.03

Question: What about the encoding yield [38] of the same binder?
Answer: 0.03

Question: What about the encoding yield [39] of the same binder?
Answer: 0.02

Question: What about the encoding yield [40] of the same binder?
Answer: 0.17

Question: What about the encoding yield [41] of the same binder?
Answer: 0.02

Question: What about the encoding yield [42] of the same binder?
Answer: 0.04

Question: And the encoding yield [43]?
Answer: 0.07

Question: And the encoding yield [44]?
Answer: 0.03

Question: And the encoding yield [45]?
Answer: 0.03

Question: What about the encoding yield [46] of the same binder?
Answer: 0.03

Question: What about the encoding yield [47] of the same binder?
Answer: 0.03

Question: And the encoding yield [48]?
Answer: 0.02

Question: And the encoding yield [49]?
Answer: 0.03

Question: What about the encoding yield [50] of the same binder?
Answer: 0.04

Question: And the encoding yield [51]?
Answer: 0.01

Question: And the encoding yield [52]?
Answer: 0.08

Question: What about the encoding yield [53] of the same binder?
Answer: 0.32
